According to article PMC11410209:

Target: 2526 IgG3
Assay: ELISA
Details: read at the highest mAb concentration, 10 µg/ml; parent: est. 4.0; read off a plot

For “BG505.SOSIP with a glycan at position 332 (Fig 5C) N332T”, the response was 3.1 Abs (450nm).
